Experimental data taken from patent US20200181255A1 (Amgen, published 2020).

T1: recombinant cynomolgous IL-23 (cynomolgous)
T1 chain 1: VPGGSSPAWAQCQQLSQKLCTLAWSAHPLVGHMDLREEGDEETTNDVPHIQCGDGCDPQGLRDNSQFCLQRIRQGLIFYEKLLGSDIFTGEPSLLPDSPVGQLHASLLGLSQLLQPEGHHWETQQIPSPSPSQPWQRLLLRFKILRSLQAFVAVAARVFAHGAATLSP
T1 chain 2: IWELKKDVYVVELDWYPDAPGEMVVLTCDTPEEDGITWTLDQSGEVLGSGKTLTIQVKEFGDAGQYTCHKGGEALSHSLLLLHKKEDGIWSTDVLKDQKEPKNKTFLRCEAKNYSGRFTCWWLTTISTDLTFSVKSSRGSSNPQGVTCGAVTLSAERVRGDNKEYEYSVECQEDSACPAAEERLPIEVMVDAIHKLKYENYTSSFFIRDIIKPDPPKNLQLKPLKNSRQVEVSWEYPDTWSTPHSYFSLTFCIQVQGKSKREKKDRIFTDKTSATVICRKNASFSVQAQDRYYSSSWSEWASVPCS

T2: recombinant human IL-23 (human, UniProt Q9NPF7 20-189; P29460 23-328)
T2 sequence 1: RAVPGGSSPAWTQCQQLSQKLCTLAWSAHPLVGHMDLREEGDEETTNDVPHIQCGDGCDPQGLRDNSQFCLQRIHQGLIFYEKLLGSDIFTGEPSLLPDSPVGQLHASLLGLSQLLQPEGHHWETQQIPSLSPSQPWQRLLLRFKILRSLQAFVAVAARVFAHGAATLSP
T2 sequence 2: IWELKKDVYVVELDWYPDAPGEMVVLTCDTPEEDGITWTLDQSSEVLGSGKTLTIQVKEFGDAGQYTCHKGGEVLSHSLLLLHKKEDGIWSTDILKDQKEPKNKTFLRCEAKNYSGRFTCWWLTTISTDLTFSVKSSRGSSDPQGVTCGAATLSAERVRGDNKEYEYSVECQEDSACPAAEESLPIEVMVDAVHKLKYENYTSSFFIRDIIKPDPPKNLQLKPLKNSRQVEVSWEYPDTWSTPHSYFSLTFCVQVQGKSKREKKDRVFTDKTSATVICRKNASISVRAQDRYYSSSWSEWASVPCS

T3: Native human IL-23 (human, UniProt Q9NPF7 20-189; P29460 23-328)
T3 sequence 1: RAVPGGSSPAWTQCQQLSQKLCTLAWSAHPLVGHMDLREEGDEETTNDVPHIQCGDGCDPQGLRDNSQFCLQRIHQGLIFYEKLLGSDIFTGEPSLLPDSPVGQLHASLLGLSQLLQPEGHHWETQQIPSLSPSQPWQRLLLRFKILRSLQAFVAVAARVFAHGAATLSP
T3 sequence 2: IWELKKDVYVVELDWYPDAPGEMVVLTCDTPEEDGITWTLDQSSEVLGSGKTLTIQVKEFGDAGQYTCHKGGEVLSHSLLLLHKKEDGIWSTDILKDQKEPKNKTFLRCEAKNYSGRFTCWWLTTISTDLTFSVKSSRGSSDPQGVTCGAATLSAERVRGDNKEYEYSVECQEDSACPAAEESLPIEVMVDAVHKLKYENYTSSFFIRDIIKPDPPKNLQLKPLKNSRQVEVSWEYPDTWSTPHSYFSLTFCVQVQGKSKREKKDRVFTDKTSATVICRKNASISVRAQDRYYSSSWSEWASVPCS

B1: Antibody G (antibody, V domains shown)
VH: QVQLQESGPRLVKPSETLSLTCTVSGDSISSYFWSWIRQPPGKGLEWLGYIYYSGSTNYNPSLKSRVTISIDTSKNQFSLKLSSVTAADTAVYYCTRDRGSYYGSDYWGQGTLVTVSS
VL: DIQMTQSPSSVSASVGDRVTITCRAGQVISSWLAWYQQKPGKAPKLLIYAASSLQSGVPSRFSGSGSGTDFTLTISSLQPDDFATYYCQQATSFPLTFGGGTKVEIK
notes: also called VH12/VL12
B2: Antibody B (antibody, V domains shown)
VH: QVQLQESGPGLVKPSQTLSLTCTVSGGSISSGGYYWSWIRQHPGKGLEWIGHIHYSGNTYYNPSLKSRVTISVDTSKNQFSLKLSSVTAADTAVYYCAKNRGFYYGMDVWGQGTTVTVSS
VL: DIQMTQSPSSVSASVGDRVTITCRASQVISSWLAWYQQKPGKAPSLLIYAASSLQSGVPSRFSGSVSGTDFTLTISSLQPEDFATYYCQQANSFPFTFGPGTKVDFK
notes: also called VH9/VL9

What was measured:
[1] = molecular target: T1, recombinant cynomolgous IL-23; test: cell-based or functional assay
recombinant human IL-23 [2] = molecular target: T2, recombinant human IL-23; test: cell-based or functional assay
recombinant human IL-23 [3] = molecular target: T2, recombinant human IL-23; test: KinExA, derived from KD=Koff/Kon
[4] = molecular target: T1, recombinant cynomolgous IL-23; test: cell-based or functional assay
Native human IL-23 [5] = molecular target: T3, Native human IL-23; test: cell-based or functional assay
recombinant human IL-23 [6] = molecular target: T2, recombinant human IL-23; test: cell-based or functional assay; remark: listed apart in the source
[7] = molecular target: T1, recombinant cynomolgous IL-23; test: cell-based or functional assay
Native human IL-23 [8] = molecular target: T3, Native human IL-23; test: cell-based or functional assay; remark: listed apart in the source
recombinant human IL-23 [9] = molecular target: T2, recombinant human IL-23; test: cell-based or functional assay; remark: listed apart in the source
[10] = molecular target: T1, recombinant cynomolgous IL-23; test: cell-based or functional assay
recombinant human IL-23 [11] = molecular target: T2, recombinant human IL-23; test: cell-based or functional assay; remark: listed apart in the source
recombinant human IL-23 [12] = molecular target: T2, recombinant human IL-23; test: KinExA, solution equilibrium, rhuIL-23-coated beads
Procedure: Normal human serum (NHS)-activated Sepharose 4 fast flow beads (Amersham Biosciences, part of GE Healthcare, Uppsala, Sweden), are pre-coated with rhuIL-23 and blocked with 1 m Tris buffer with 10 mg/mL BSA. 50 pM of IL-23 antibody is incubated with rhuIL-23 (12 points of 1:2 dilutions starting from 800 pM) at room temperature for 72 hours before it is run through the rhuIL-23-coated Sepharose beads. The amount of the bead-bound antibody was quantified by fluorescent (Cy5) labeled goat anti-human-Fc antibody (Jackson Immuno Research, West Grove, Pa.). The binding signal is proportional to the amount of free antibody at equilibrium.

recombinant human IL-23 [13] = molecular target: T2, recombinant human IL-23; test: KinExA

| Binder | IC50 (pM), IL-22 human whole blood assay [1] [pM] | IC50 (pM), IL-22 human whole blood assay (recombinant human IL-23 [2]) [pM] | koff (recombinant human IL-23 [3]) [s⁻¹] | IC50 (pM), NK cell assay (IFNγ) [4] [pM] | IC50 (pM), NK cell assay (IFNγ) (Native human IL-23 [5]) [pM] | IC50 (pM), NK cell assay (IFNγ) (recombinant human IL-23 [6]) [pM] | IC50 (pM), STAT-luciferase assay [7] [pM] | IC50 (pM), STAT-luciferase assay (Native human IL-23 [8]) [pM] | IC50 (pM), STAT-luciferase assay (recombinant human IL-23 [9]) [pM] | IC50 (pM), IFNγ human whole blood assay [10] [pM] | IC50 (pM), IFNγ human whole blood assay (recombinant human IL-23 [11]) [pM] | Kd (recombinant human IL-23 [12]) [pM] | kon (recombinant human IL-23 [13]) [M⁻¹ s⁻¹] |
| --- | --- | --- | --- | --- | --- | --- | --- | --- | --- | --- | --- | --- | --- |
| B1 | 66 | 83 | 8.1e-07 | 23 | 152 | 45 | 421 | 156 | 296 | 93 | 53 | 2 | 400000 |
| B2 | 113 | 117 | 4.7e-06 | 19 | 85 | 48 | 130 | 45 | 100 | 161 | 117 | 3.99 | 1.17e+06 |
